Experimental data as given in patent US20070185028A1, “Compositions and methods for treatment of protein misfolding and protein aggregation diseases” (priority 2004, published 2007).

Key:
Aβ = Aβ (Homo sapiens, UniProt P05067); experiment: Aβ Thioflavin T fluorescence (fibrillization, 50° C., 72 hours); assay type: biochemical; conditions: 1:10 Aβ:peptide; for effect on the fibrillization of Aβ (ranking): 72 hrs; for Δfluorescence (Aβ): Thioflavin T, 50° C., 72 hours
Protocol: Aβ Thioflaviin T fluorescence. Aβ fibrils were grown in the presence and absence of αB crystallin and peptides in conditions similar to that previously described for the presence of αB crystallin. Bakthisaran et al., Biochem J, 2005. Peptides were dissolved to 9.1 mM in trifluorethanol (TFE) and diluted to 0.91 mM stock solutions in 50 mM PBS, 100 mM NaCl, pH 7.4. 3.5 mg of Thioflavin T was dissolved in 100 μl of 50 mM Glycine pH 8.5. A stock solution of 1 mg/ml (0.22 mM) Aβ was prepared. 20 μl Aβ, 50 μl chaperone, 2 μl Thioflavin T was mixed with 28 μl 50 mM PBS, 100 mM NaCl, pH 7.4. Fluorescence was read using a Beckman Coultier DTX 880 multimode detector. Samples were heated at 50° C. for 72 hours and fluorescence was read again.
The fibrillization of Aβ was measured as fluorescence of the fluorescent dye Thioflavin T from solutions containing 1:10 monomeric molar ratio of Aβ:peptide. In the absence of Aβ fibrils, Thioflavin T had little or no fluorescence. The fluorescence of the Thioflavin T bound to Aβ fibrils in the absence of any other molecule after 72 hrs was set to 100%. […] Fibril formation=ΔfluorescenceAβ (with chaperone)*100/ΔfluorescenceAβ (without chaperone).

βL crystallin = experiment: Chaperone assay, thermal aggregation of βL crystallin; assay type: biochemical; conditions: 1:10 target protein:peptide; light scattering 340 nm
Protocol: Chaperone Assays. Chaperone assays of the five peptides were performed using previously established methods with minor modifications. Muchowski et al., J Mol Biol 289: 397-411, 1999. A 1:1 monomeric molar ratio of chaperone:target protein was determined to be the optimum ratio and all subsequent chaperone assays of the β3 mutants were performed in triplicate and at a 1:1 monomeric molar ratio of chaperone:target protein in a 96-well ELISA micro-titer plate. […] of the chaperone and βL crystallin were mixed in a total volume of 200 μl buffer (5 mM PBS, pH 7.0). Light scattering at λ=340 nm was measured using a Multiskan MCC/340 plate reader before heating (time=0). After the first reading, the plate was heated at 50° C. and readings were taken at fifteen minute intervals for one hour.
The ability of the peptides to suppress the thermal aggregation of βL crystallin was measured spectrophotometrically as light scattering at λ=340 nm from solutions containing 1:10 monomeric molar ratio of target protein:peptide.

human γD crystallin = target: T1, human γD crystallin (Homo sapiens, UniProt P07320); experiment: αB crystallin protein pin array with γD crystallin; assay type: binding; conditions: unheated γD crystallin; similar maxima pre-heated 45° C.
T1 construct: made in house
T1 sequence (P07320 1-174): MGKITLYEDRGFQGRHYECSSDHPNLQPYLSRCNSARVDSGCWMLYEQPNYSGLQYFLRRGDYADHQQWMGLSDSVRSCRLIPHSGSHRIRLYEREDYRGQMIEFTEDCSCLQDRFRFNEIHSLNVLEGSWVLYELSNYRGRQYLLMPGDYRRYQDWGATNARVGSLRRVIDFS
Excerpt: Synthesis of Pins, binding and detection of peptides binding to ligand proteins. The αB crystallin protein pin array was used to measure the interaction between peptides and chaperone target proteins including bovine βH crystallin, human γD crystallin, equine alcohol dehydrogenase (ADH) and porcine citrate synthase (CS) as described (FIG. 12). Ghosh and Clark, Protein Sci 14: 684-95, 2005.
Refer to the methods section for detailed protocols. The absorbance corresponding to the blue coloration in each well was measured at λ=450 nm and plotted against the amino acid sequence of the corresponding peptide in that well (FIGS. 13 and 14). Wells containing peptides that have strong interactions with target proteins are dark blue and wells containing peptides that have weak or no interaction with target proteins are light blue or clear.
The purity of the target proteins used in the pin array assays, bovine βH crystallin, human γD crystallin, equine alcohol dehydrogenase (ADH) and porcine citrate synthase (CS) were determined to be >90% by SDS-PAGE. In addition, primary antibodies for each target protein were specific to that target protein and consequently contaminating proteins that may bind to the peptides will not be detected. Eighty-four sequential and overlapping peptide fragments corresponding to residues 1-175 of human αB crystallin were synthesized employing a simultaneous peptide synthesis strategy developed by Geysen, called Multipin Peptide Synthesis (Mimotopes, San Diego, Calif.). Geysen, Southeast Asian J Trop Med Public Health 21: 523-33, 1990; Chin et al., J Org Chem 62: 538-539, 1997. Peptides were immobilized on derivatized polyethylene pins arranged in a microtiter ELISA plate format. Each peptide was eight amino acids in length and consecutive peptides were offset by two amino acids. All peptides were bound covalently to the surface of the plastic pins. The first peptide was 1MDIAIHHP8 and the last peptide was 168PAVTAAPK175 for human αB crystallin.
Ghosh and Clark, Protein Sci 14: 684-95, 2005. […] The intensity of the blue color in the wells was measured at 450 nm using an ELISA plate-reader (BioTek, Winooski, Vt.). The intensity of the blue color (plotted on the X-axis) was a measure of the interaction between αB crystallin peptides (plotted on the Y-axis) and target proteins. To measure the effect of temperature on the interactions between interactive peptides and the target proteins, the target proteins were heated in a water-bath at 45° C. for fifteen minutes prior to use. Pin arrays are unable to differentiate between monomers, dimers or oligomers of target proteins that exist in solution. Instead, pin arrays are very sensitive detectors of interactions between individual peptides and the entire population (monomers, dimers or oligomers) of specific target proteins that may exist in solution under specific conditions. Each target protein was assayed two to five times. A single pin array was used for all experiments and no change in interactions was observed after more than thirty repetitions. The last three peptides of the protein pin array, 163REEKPAVT170, 165EKPAVTAA172, 167PAVTAAPK174, correspond to the epitope (163REEKPAVTAAPKK175) recognized by the primary antibody for human αB crystallin. A positive reaction is observed for these three peptides in the absence of human αB crystallin as the ligand due to direct binding of the anti-human αB crystallin antibody to these three peptides. The loss of efficiency for the pin array was measured using this assay. The loss of efficiency for the pin array was determined to be <5% by after more than 30 assays.
When βH crystallin was replaced with γD crystallin, a native protein constituent of lens cytoplasm from the same gene family as the β crystallins, as the ligand in the pin array, twelve interactive sequences were identified (FIG. 14: striped bars). […]

[1] = as provided by manufacturer (Mimotopes); cited from earlier work

DRFSVNLDVKHFS
effect on the fibrillization of Aβ (ranking) (Aβ): strongest effect | Δfluorescence (Aβ) (Aβ): 264,396,672 | effect on the thermal aggregation of βL crystallin (ranking) (βL crystallin): identical and slightly lower than the HG peptide

ERTIPITRE
Δfluorescence (Aβ) (Aβ): 576,742,720 | effect on the thermal aggregation of βL crystallin (ranking) (βL crystallin): identical and slightly lower than the HG peptide

FSVNLDVK [Peptide 38]
absorbance at 450 nm, interaction with γD crystallin (human γD crystallin): maximum absorbances | Hydrophobicity [1]: 0.44

HGKHEERQDE
effect on the fibrillization of Aβ (ranking) (Aβ): weakest effect | Δfluorescence (Aβ) (Aβ): 796,478,624 | effect on the thermal aggregation of βL crystallin (ranking) (βL crystallin): strongest effect

LTITSSLS [Peptide 66]
absorbance at 450 nm, interaction with γD crystallin (human γD crystallin): maximum absorbances | Hydrophobicity [1]: 0.7

LTITSSLSSDGV
Δfluorescence (Aβ) (Aβ): 352,301,312 | effect on the thermal aggregation of βL crystallin (ranking) (βL crystallin): identical and slightly lower than the HG peptide

STSLSPFYLRPPSFLRAP
Δfluorescence (Aβ) (Aβ): 478,389,568 | effect on the thermal aggregation of βL crystallin (ranking) (βL crystallin): weakest effect

WIRRPFFP [Peptide 5]
absorbance at 450 nm, interaction with γD crystallin (human γD crystallin): maximum absorbances | Hydrophobicity [1]: 0.88
